This experiment has as its target CHIKV VLP. Kind of experiment: SPR (Biacore T100), VLP captured by mouse anti-CHIKV mAbs, Fab injected.

B1: 3E23 Fab (Fab, V domains shown)
VH: QVQLVQSGPGLVKPSDTLSLTCSVSSDALRSRSYYWGWVRQPPGKGLEWIGTVSYSGGTYYNPSLQSRVTVSVDTSKNHFSLRLNSVTAADAAVYYCARSYFYDGSGYYYLSYFDSWGQGTLVTVSS
VL: QAVVTQEPSLTVSPGGTVTLTCASSTGAVTSGHYPNWFQQKPGQPPRALIYSTDNKHSWTPARFSGSLLGVKAALTLSDVQPEDEADYYCLLHFGGVVVFGGGTKLTVL
Regarding B1, the equilibrium dissociation constant (Kd) – broadly, the constant that tells how readily two partners part at equilibrium – worked out at 19.6 nM; the koff (as a rule, the first-order rate constant of dissociation) was determined as 0.000393 s⁻¹; the on-rate constant (kon) (as a rule, the rate constant with which the complex forms) is 20300 M⁻¹ s⁻¹; the t1/2 was 29 min.

B2: 4J21 Fab (Fab, V domains shown)
VH: QVQLVQSGSELKKPGASVKVSCKASGYSFTSYSINWVRQAPGQGPEWMGWIDTNTGNPTYAQDFAGRFVFSLDTSVTTAYLQISSLKAGDTAVYYCATYYVDLWGSYRQDYYGMDVWGHGTLVTVSS
VL: QSVVTQPPSVSGTPGQGVTISCSGGSSNIGSNPVNWYQMVPGTAPKLLLYTNNQRPSGVPDRFSGSKSGTSASLAINGLQSEDEADYYCAVWDDSLSGRWVFGGGTKLTVL
In turn, B2 came in with a Kd of 9 nM, a koff of 0.00142 s⁻¹, a kon of 158000 M⁻¹ s⁻¹ and a t1/2 of 8 min.

These data come from patent US20180079802A1.
